The target in experiment [1] is αvβ3 integrin, wild type, on mouse lung endothelial cells (WT EC) (mouse) (UniProt P43406). Briefly: flow cytometry, FITC-fibrinogen on WT mouse lung EC, 1 mM MnCl2 against unstimulated cells. Background: In flow cytometry, cells or beads pass a laser one at a time.
In experiment [2] the target is DiYF β3 integrin (αvβ3 with β3 tyrosines 747 and 759 substituted for phenylalanines), on DiYF mouse lung endothelial cells (mouse) (UniProt P43406). Briefly: flow cytometry, FITC-fibrinogen on DiYF mouse lung EC, 1 mM MnCl2 against unstimulated cells.
For experiment [3] the target is unchanged. Briefly: flow cytometry, FITC-fibrinogen on DiYF mouse lung EC, 20 ng/ml VEGF against unstimulated cells.
For experiment [4], the target named is αvβ3 integrin, wild type, on mouse lung endothelial cells (WT EC) (mouse) (UniProt P43406). Briefly: flow cytometry, FITC-fibrinogen on WT mouse lung EC, 20 ng/ml VEGF against unstimulated cells (printed as 'at least').
For experiment [5], the target named is VEGF receptor-2 on mouse lung endothelial cells (mouse) (UniProt P35918). Briefly: cell-based or functional assay.
VEGF receptor-2 on mouse lung endothelial cells (mouse), sequence (P35918 20-1345): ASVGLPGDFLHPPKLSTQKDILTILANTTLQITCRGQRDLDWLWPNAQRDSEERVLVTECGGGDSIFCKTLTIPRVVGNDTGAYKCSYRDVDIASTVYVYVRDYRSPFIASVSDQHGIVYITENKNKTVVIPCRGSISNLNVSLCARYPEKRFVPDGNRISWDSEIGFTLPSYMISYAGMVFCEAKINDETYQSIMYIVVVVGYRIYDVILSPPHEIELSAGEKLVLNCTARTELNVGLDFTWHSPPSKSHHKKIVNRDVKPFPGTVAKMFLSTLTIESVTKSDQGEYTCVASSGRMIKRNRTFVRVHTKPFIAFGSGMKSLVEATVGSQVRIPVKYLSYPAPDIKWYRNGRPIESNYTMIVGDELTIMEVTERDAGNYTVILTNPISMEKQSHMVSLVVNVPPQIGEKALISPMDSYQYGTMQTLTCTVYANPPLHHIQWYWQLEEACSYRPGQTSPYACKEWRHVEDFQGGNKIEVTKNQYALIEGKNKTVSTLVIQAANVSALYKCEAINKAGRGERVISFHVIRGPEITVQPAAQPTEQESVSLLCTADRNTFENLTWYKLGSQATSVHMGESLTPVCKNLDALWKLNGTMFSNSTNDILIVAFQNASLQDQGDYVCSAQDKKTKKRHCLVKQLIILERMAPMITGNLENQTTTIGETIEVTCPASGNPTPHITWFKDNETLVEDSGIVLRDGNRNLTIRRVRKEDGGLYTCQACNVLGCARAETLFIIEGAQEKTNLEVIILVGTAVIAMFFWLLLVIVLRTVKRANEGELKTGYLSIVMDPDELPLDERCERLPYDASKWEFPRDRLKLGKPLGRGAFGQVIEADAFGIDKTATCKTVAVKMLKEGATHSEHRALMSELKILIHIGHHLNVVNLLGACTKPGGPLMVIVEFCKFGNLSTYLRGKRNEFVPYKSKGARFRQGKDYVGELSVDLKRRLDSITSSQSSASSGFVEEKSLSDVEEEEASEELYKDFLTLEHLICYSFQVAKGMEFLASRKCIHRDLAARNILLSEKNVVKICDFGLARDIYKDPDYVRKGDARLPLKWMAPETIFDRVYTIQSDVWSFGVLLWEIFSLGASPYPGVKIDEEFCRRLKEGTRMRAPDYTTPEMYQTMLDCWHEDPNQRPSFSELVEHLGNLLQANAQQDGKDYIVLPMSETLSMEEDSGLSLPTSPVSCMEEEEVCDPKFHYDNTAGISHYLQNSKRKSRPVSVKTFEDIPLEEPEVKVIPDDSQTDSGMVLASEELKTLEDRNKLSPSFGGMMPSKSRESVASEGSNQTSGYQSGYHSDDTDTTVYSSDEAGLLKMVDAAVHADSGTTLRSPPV
The target of experiment [6] is αvβ3 integrin on human endothelial cells (HUVEC; vasculature of human prostate tissue) (human) (UniProt P06756). Briefly: flow cytometry, WOW-1 Fab on HUVEC, VEGF-A165 against resting cells.
Experiment [7] deals with αvβ3 integrin, wild type, on mouse lung endothelial cells (WT EC) (mouse) (UniProt P43406). Briefly: flow cytometry, WOW-1 Fab on WT mouse lung EC, 1 mM MnCl2 against unstimulated cells.
In experiment [8] the target is DiYF β3 integrin (αvβ3 with β3 tyrosines 747 and 759 substituted for phenylalanines), on DiYF mouse lung endothelial cells (mouse) (UniProt P43406). Briefly: flow cytometry, WOW-1 Fab on DiYF mouse lung EC, 1 mM MnCl2 against unstimulated cells.
Experiment [9] addresses αvβ3 integrin, wild type, on mouse lung endothelial cells (WT EC) (mouse) (UniProt P43406). Briefly: flow cytometry, WOW-1 Fab on WT mouse lung EC, 20 ng/ml VEGF against unstimulated cells.
The target of experiment [10] is DiYF β3 integrin (αvβ3 with β3 tyrosines 747 and 759 substituted for phenylalanines), on DiYF mouse lung endothelial cells (mouse) (UniProt P43406). Briefly: flow cytometry, WOW-1 Fab on DiYF mouse lung EC, 20 ng/ml VEGF against unstimulated cells.
Experiment [11] concerns the target αvβ3 integrin on human endothelial cells (HUVEC; vasculature of human prostate tissue) (human) (UniProt P06756). Briefly: immunohistochemistry, WOW-1 staining density, prostate carcinoma against normal prostate tissue.
The target of experiment [12] is DiYF β3 integrin (αvβ3 with β3 tyrosines 747 and 759 substituted for phenylalanines), on DiYF mouse lung endothelial cells (mouse) (UniProt P43406). Briefly: cell-based or functional assay.
In experiment [13] the target is VEGFR-2 on human endothelial cells (HUVEC; vasculature of human prostate tissue) (human, UniProt P35968 20-1356). Briefly: cell-based or functional assay.
VEGFR-2 on human endothelial cells (HUVEC; vasculature of human prostate tissue), sequence (P35968 20-1356): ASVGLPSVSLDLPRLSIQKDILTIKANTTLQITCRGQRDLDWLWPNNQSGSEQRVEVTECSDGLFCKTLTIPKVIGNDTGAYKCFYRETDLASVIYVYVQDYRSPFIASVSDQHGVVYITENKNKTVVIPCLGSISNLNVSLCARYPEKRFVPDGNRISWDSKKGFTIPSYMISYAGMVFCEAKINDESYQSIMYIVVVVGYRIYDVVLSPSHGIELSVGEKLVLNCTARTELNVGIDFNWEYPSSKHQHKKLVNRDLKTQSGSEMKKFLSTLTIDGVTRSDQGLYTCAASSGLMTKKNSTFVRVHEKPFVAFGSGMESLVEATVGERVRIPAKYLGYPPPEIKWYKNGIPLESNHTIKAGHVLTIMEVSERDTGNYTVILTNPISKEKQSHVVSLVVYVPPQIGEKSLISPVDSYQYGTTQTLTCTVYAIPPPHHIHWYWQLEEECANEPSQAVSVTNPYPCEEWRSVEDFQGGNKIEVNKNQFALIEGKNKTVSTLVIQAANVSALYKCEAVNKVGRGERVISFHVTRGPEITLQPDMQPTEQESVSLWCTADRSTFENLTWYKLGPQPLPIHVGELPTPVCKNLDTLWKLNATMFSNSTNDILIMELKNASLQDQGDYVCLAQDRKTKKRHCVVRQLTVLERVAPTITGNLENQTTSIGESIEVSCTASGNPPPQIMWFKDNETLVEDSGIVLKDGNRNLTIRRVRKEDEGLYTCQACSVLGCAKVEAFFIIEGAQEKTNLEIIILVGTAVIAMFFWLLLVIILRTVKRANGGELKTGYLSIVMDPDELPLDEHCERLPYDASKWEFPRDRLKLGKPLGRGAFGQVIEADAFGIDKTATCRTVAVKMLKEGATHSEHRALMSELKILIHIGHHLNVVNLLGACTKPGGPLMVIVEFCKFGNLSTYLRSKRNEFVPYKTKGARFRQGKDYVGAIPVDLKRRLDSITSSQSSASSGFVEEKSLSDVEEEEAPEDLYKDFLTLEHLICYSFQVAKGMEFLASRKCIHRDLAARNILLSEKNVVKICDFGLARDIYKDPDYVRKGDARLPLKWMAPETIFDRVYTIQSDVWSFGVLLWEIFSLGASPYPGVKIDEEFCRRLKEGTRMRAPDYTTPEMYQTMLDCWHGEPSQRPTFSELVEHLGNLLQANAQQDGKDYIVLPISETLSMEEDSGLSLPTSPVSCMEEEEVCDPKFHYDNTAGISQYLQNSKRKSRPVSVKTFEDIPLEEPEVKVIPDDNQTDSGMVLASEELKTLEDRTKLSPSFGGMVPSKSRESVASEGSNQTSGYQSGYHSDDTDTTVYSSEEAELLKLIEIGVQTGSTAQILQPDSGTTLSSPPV

Take “Fluorescein isothiocyanate (FITC)-labeled fibrinogen (ligand)”: the fold increase of binding in experiment [1] was greater than 40 fold; in experiment [2] it was 17 fold; in [3], 3 fold; in [4] it was 6 fold.

In experiment [5], VEGF-A165 (ligand) came in with a VEGFR-2 phosphorylation in DiYF EC (immunoprecipitation, anti-phosphotyrosine blot) of 2.5 fold and a VEGFR-2 phosphorylation in WT EC (immunoprecipitation, anti-phosphotyrosine blot) of 6 fold.

Regarding WOW-1 Fab, the fold increase of binding turned out to be 6 fold in experiment [6]; 30 fold in [7]; 14 fold in [8]; 9 fold in experiment [9]; 3.5 fold in experiment [10]. In [11], the fold increase of WOW-1 density was found to be 2.7 fold.

As to vitronectin (ligand), in experiment [12], the fold decrease in adhesion of DiYF EC to vitronectin-coated wells, against WT EC amounted to 2 fold and the fold decrease in spreading of DiYF EC on vitronectin-coated wells, against WT EC was 4 fold.

B1: αvβ3 integrin on human endothelial cells (HUVEC; vasculature of human prostate tissue) (receptor)
chain 1: FNLDVDSPAEYSGPEGSYFGFAVDFFVPSASSRMFLLVGAPKANTTQPGIVEGGQVLKCDWSSTRRCQPIEFDATGNRDYAKDDPLEFKSHQWFGASVRSKQDKILACAPLYHWRTEMKQEREPVGTCFLQDGTKTVEYAPCRSQDIDADGQGFCQGGFSIDFTKADRVLLGGPGSFYWQGQLISDQVAEIVSKYDPNVYSIKYNNQLATRTAQAIFDDSYLGYSVAVGDFNGDGIDDFVSGVPRAARTLGMVYIYDGKNMSSLYNFTGEQMAAYFGFSVAATDINGDDYADVFIGAPLFMDRGSDGKLQEVGQVSVSLQRASGDFQTTKLNGFEVFARFGSAIAPLGDLDQDGFNDIAIAAPYGGEDKKGIVYIFNGRSTGLNAVPSQILEGQWAARSMPPSFGYSMKGATDIDKNGYPDLIVGAFGVDRAILYRARPVITVNAGLEVYPSILNQDNKTCSLPGTALKVSCFNVRFCLKADGKGVLPRKLNFQVELLLDKLKQKGAIRRALFLYSRSPSHSKNMTISRGGLMQCEELIAYLRDESEFRDKLTPITIFMEYRLDYRTAADTTGLQPILNQFTPANISRQAHILLDCGEDNVCKPKLEVSVDSDQKKIYIGDDNPLTLIVKAQNQGEGAYEAELIVSIPLQADFIGVVRNNEALARLSCAFKTENQTRQVVCDLGNPMKAGTQLLAGLRFSVHQQSEMDTSVKFDLQIQSSNLFDKVSPVVSHKVDLAVLAAVEIRGVSSPDHVFLPIPNWEHKENPETEEDVGPVVQHIYELRNNGPSSFSKAMLHLQWPYKYNNNTLLYILHYDIDGPMNCTSDMEINPLRIKISSLQTTEKNDTVAGQGERDHLITKRDLALSEGDIHTLGCGVAQCLKIVCQVGRLDRGKSAILYVKSLLWTETFMNKENQNHSYSLKSSASFNVIEFPYKNLPIEDITNSTLVTTNVTWGIQPAPMPVPVWVIILAVLAGLLLLAVLVFVMYRMGFFKRVRPPQEEQEREQLQPHENGEGNSET
chain 2: GPNICTTRGVSSCQQCLAVSPMCAWCSDEALPLGSPRCDLKENLLKDNCAPESIEFPVSEARVLEDRPLSDKGSGDSSQVTQVSPQRIALRLRPDDSKNFSIQVRQVEDYPVDIYYLMDLSYSMKDDLWSIQNLGTKLATQMRKLTSNLRIGFGAFVDKPVSPYMYISPPEALENPCYDMKTTCLPMFGYKHVLTLTDQVTRFNEEVKKQSVSRNRDAPEGGFDAIMQATVCDEKIGWRNDASHLLVFTTDAKTHIALDGRLAGIVQPNDGQCHVGSDNHYSASTTMDYPSLGLMTEKLSQKNINLIFAVTENVVNLYQNYSELIPGTTVGVLSMDSSNVLQLIVDAYGKIRSKVELEVRDLPEELSLSFNATCLNNEVIPGLKSCMGLKIGDTVSFSIEAKVRGCPQEKEKSFTIKPVGFKDSLIVQVTFDCDCACQAQAEPNSHRCNNGNGTFECGVCRCGPGWLGSQCECSEEDYRPSQQDECSPREGQPVCSQRGECLCGQCVCHSSDFGKITGKYCECDDFSCVRYKGEMCSGHGQCSCGDCLCDSDWTGYYCNCTTRTDTCMSSNGLLCSGRGKCECGSCVCIQPGSYGDTCEKCPTCPDACTFKKECVECKKFDRGALHDENTCNRYCRDEIESVKELKDTGKDAVNCTYKNEDDCVVRFQYYEDSSGKSILYVVEEPECPKGPDILVVLLSVMGAILLIGLAALLIWKLLITIHDRKEFAKFEEERARAKWDTANNPLYKEATSTFTNITYRGT
Take B1: in experiment [13], the “fold decrease in VEGFR-2 phosphorylation in response to VEGF in HUVEC after β3 siRNA” value is roughly 3 fold.

(Values after patent publication US20140135264A1 (CLEVELAND CLINIC FOUNDATION, published 2014).)
